Results as given in US20060257938A1, “Method of screening for drugs that block ligand binding to a lipid binding protein” (priority 2005, published 2006).
Substitutions are numbered along the chain they refer to.

B1: 18V 31A 55W 73W 72A (protein, listed as Rattus norvegicus)
chain: AFDGTWKVDRNENYEKFVEKMGINVVKRKLAAHDNLKLTITQEGNKFTVKESSNWRNIDVVFELGVDFAYSAWDGTELTGTWTMEGNKLVGKFKRVDNGKELIAVREISGNELIQTYTYEGVEAKRIFKKE
modifications: PEPTIDE (1)...(131) wild-type rat intestinal fatty acid binding protein
B2: 18I 31I 55M 73I 72A (protein, listed as Rattus norvegicus)
chain: B1 chain with V18I, A31I, W55M, W73I
modifications: PEPTIDE (1)...(131) wild-type rat intestinal fatty acid binding protein
B3: 18I 31L 55L 72A (protein, listed as Rattus norvegicus)
chain: B1 chain with V18I, A31L, W55L, W73A
modifications: PEPTIDE (1)...(131) wild-type rat intestinal fatty acid binding protein
B4: 72I 73W 74N (protein, listed as Rattus norvegicus)
chain: B1 chain with V18M, A31G, W55F, A72I, D74N
modifications: PEPTIDE (1)...(131) wild-type rat intestinal fatty acid binding protein
B5: 72S 73W 74G (protein, listed as Rattus norvegicus)
chain: B1 chain with V18M, A31G, W55F, A72S, D74G
modifications: PEPTIDE (1)...(131) wild-type rat intestinal fatty acid binding protein
B6: 18V 31F 73M 72A (protein, listed as Rattus norvegicus)
chain: B1 chain with A31F, W55F, W73M
modifications: PEPTIDE (1)...(131) wild-type rat intestinal fatty acid binding protein
B7: 73F 72A (protein, listed as Rattus norvegicus)
chain: B1 chain with V18M, A31G, W55F, W73F
modifications: PEPTIDE (1)...(131) wild-type rat intestinal fatty acid binding protein
B8: 74Q 72A 73F (protein, listed as Rattus norvegicus)
chain: B1 chain with V18M, A31G, W55F, W73F, D74Q
modifications: PEPTIDE (1)...(131) wild-type rat intestinal fatty acid binding protein
B9: 73T 72A 74F (protein, listed as Rattus norvegicus)
chain: B1 chain with V18M, A31G, W55F, W73T, D74F
modifications: PEPTIDE (1)...(131) wild-type rat intestinal fatty acid binding protein
B10: 55V 73F 72A (protein, listed as Rattus norvegicus)
chain: B1 chain with V18M, A31G, W55V, W73F
modifications: PEPTIDE (1)...(131) wild-type rat intestinal fatty acid binding protein
B11: 73P 72A 74F (protein, listed as Rattus norvegicus)
chain: B1 chain with V18M, A31G, W55F, W73P, D74F
modifications: PEPTIDE (1)...(131) wild-type rat intestinal fatty acid binding protein
B12: 18V 31F 55L 72A (protein, listed as Rattus norvegicus)
chain: B1 chain with A31F, W55L, W73A
modifications: PEPTIDE (1)...(131) wild-type rat intestinal fatty acid binding protein
B13: 74T 72A 73F (protein, listed as Rattus norvegicus)
chain: B1 chain with V18M, A31G, W55F, W73F, D74T
modifications: PEPTIDE (1)...(131) wild-type rat intestinal fatty acid binding protein
B14: 74S 72A 73F (protein, listed as Rattus norvegicus)
chain: B1 chain with V18M, A31G, W55F, W73F, D74S
modifications: PEPTIDE (1)...(131) wild-type rat intestinal fatty acid binding protein
B15: 72G 73F 74N (protein, listed as Rattus norvegicus)
chain: B1 chain with V18M, A31G, W55F, A72G, W73F, D74N
modifications: PEPTIDE (1)...(131) wild-type rat intestinal fatty acid binding protein
B16: 72S 73Q 74A (protein, listed as Rattus norvegicus)
chain: B1 chain with V18M, A31G, W55F, A72S, W73Q, D74A
modifications: PEPTIDE (1)...(131) wild-type rat intestinal fatty acid binding protein
B17: 38I 74F 72A (protein, listed as Rattus norvegicus)
chain: B1 chain with V18M, A31G, L38I, W55F, W73A, D74F
modifications: PEPTIDE (1)...(131) wild-type rat intestinal fatty acid binding protein
B18: 74E 72A 73F (protein, listed as Rattus norvegicus)
chain: B1 chain with V18M, A31G, W55F, W73F, D74E
modifications: PEPTIDE (1)...(131) wild-type rat intestinal fatty acid binding protein
B19: 18I 31V 55V 73V 72A (protein, listed as Rattus norvegicus)
chain: B1 chain with V18I, A31V, W55V, W73V
modifications: PEPTIDE (1)...(131) wild-type rat intestinal fatty acid binding protein
B20: 38Y 117A 72A (protein, listed as Rattus norvegicus)
chain: B1 chain with V18M, A31G, L38Y, W55F, W73A, Y117A
modifications: PEPTIDE (1)...(131) wild-type rat intestinal fatty acid binding protein

Test: Probe fluorescence ratio response to arachidonic acid relative to ADIFAB2
Format: binding
Conditions: arachidonic acid; response relative to ADIFAB2
Summary of the method: (§1)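 Each fatty acid's response was expressed relative to ADIFAB2, the rI-FABP-L72A probe, as ΔR/ΔRreference. ΔR is the change in the background-corrected two-wavelength intensity ratio R=Fλ1/Fλ2 from its analyte-free baseline R0. Emission was read near about 420-480 nm for unbound and about 495-580 nm for FFA-bound probe.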

Molecule | DR/DR AA
B1 | 1.130
B2 | 1.354
B3 | 1.285
B4 | 0.791
B5 | 1.012
B6 | 1.014
B7 | 1.051
B8 | 0.465
B9 | 0.939
B10 | 0.864
B11 | 1.078
B12 | 0.921
B13 | 0.852
B14 | 0.893
B15 | 0.617
B16 | 2.290
B17 | 0.787
B18 | 0.703
B19 | 0.632
B20 | 2.216

Test: Probe fluorescence ratio response to linolenic acid relative to ADIFAB2
Format: binding
Conditions: response relative to ADIFAB2
Summary of the method: as §1

Molecule | DR/DR LNA
B1 | 1.887
B2 | 1.803
B3 | 1.736
B4 | 1.794
B5 | 1.706
B6 | 1.511
B7 | 1.775
B8 | 1.025
B9 | 1.661
B10 | 1.566
B11 | 1.518
B12 | 1.180
B13 | 1.635
B14 | 1.433
B15 | 1.367
B16 | 2.077
B17 | 1.395
B18 | 1.558
B19 | 1.179
B20 | 1.547

Test: Probe fluorescence ratio response to linoleic acid relative to ADIFAB2
Format: binding
Conditions: response relative to ADIFAB2
Summary of the method: as §1

Molecule | DR/DR LA
B1 | 1.555
B2 | 1.516
B3 | 1.442
B4 | 1.194
B5 | 1.375
B6 | 1.296
B7 | 1.171
B8 | 0.711
B9 | 1.389
B10 | 1.223
B11 | 0.838
B12 | 0.996
B13 | 1.185
B14 | 1.035
B15 | 0.454
B16 | 2.140
B17 | 1.162
B18 | 1.093
B19 | 0.853
B20 | 1.869

Test: Probe fluorescence ratio response to oleic acid relative to ADIFAB2
Format: binding
Conditions: response relative to ADIFAB2
Summary of the method: as §1

Molecule | DR/DR OA
B1 | 0.913
B2 | 0.822
B3 | 0.759
B4 | 0.779
B5 | 0.970
B6 | 0.794
B7 | 0.630
B8 | 0.390
B9 | 1.161
B10 | 0.661
B11 | 0.868
B12 | 0.649
B13 | 0.634
B14 | 0.630
B15 | −0.032
B16 | 1.875
B17 | 0.764
B18 | 0.575
B19 | 0.448
B20 | 1.976

Test: Probe fluorescence ratio response to palmitic acid relative to ADIFAB2
Format: binding
Conditions: response relative to ADIFAB2
Summary of the method: as §1

Molecule | DR/DR PA
B1 | 1.505
B2 | 1.546
B3 | 1.523
B4 | 2.091
B5 | 1.653
B6 | 1.395
B7 | 1.118
B8 | 0.649
B9 | 1.632
B10 | 1.082
B11 | 1.278
B12 | 1.035
B13 | 1.150
B14 | 1.158
B15 | 0.456
B16 | 1.896
B17 | 1.343
B18 | 1.026
B19 | 0.974
B20 | 0.933

Test: Probe fluorescence ratio response to palmitoleic acid relative to ADIFAB2
Format: binding
Conditions: response relative to ADIFAB2
Summary of the method: as §1

Molecule | DR/DR POA
B1 | 2.042
B2 | 1.903
B3 | 2.011
B4 | 3.236
B5 | 2.422
B6 | 1.538
B7 | 2.381
B8 | 1.479
B9 | 2.450
B10 | 2.264
B11 | 1.776
B12 | 1.353
B13 | 2.309
B14 | 2.413
B15 | 1.499
B16 | 2.293
B17 | 2.112
B18 | 2.395
B19 | 1.236
B20 | 0.839

Test: Probe fluorescence ratio response to stearic acid relative to ADIFAB2
Format: binding
Conditions: response relative to ADIFAB2
Summary of the method: as §1

Molecule | DR/DR SA
B1 | 0.392
B2 | 0.382
B3 | 0.310
B4 | 0.329
B5 | 0.411
B6 | 0.383
B7 | 0.399
B8 | 0.177
B9 | 0.519
B10 | 0.285
B11 | 0.494
B12 | 0.358
B13 | 0.273
B14 | 0.337
B15 | −0.043
B16 | 1.311
B17 | 0.503
B18 | 0.251
B19 | 0.233
B20 | 1.201
